Experimental data: patent EP4786492A1

Columns and labels:
[1] = molecular target: DLL3 endogenously expressed on NCI-H82 cells (UniProt Q9NYJ7); assay: FACS on NCI-H82 cells; antibody 0.032 nM
[2] = molecular target: mouse DLL3 on CHO-K1-mDLL3 cells (mouse) (UniProt O88516); assay: FACS, CHO-K1-mDLL3 cells, 4 nM antibody
[3] = molecular target: monkey DLL3 on CHO-K1-cyno DLL3 cells (cynomolgus monkey); assay: FACS, CHO-K1-cyno DLL3 cells, 0.00128 nM antibody
[4] = molecular target: mouse DLL3 on CHO-K1-mDLL3 cells (mouse) (UniProt O88516); assay: FACS, CHO-K1-mDLL3 cells, 0.032 nM antibody
[5] = molecular target: human DLL3 protein expressed on CHO-K1 recombinant cells (human DLL3 extracellular segment fused to EpCAM transmembrane and intracellular regions) (human) (UniProt Q9NYJ7); assay: FACS, CHO-K1 hDLL3 cells, 0.8 nM antibody
[6] = molecular target: DLL3 endogenously expressed on NCI-H82 cells (UniProt Q9NYJ7); assay: FACS on NCI-H82 cells; antibody 0.8 nM
[7] = molecular target: mouse DLL3 on CHO-K1-mDLL3 cells (mouse) (UniProt O88516); assay: FACS, CHO-K1-mDLL3 cells, 20 nM antibody
[8] = molecular target: human DLL3 protein expressed on CHO-K1 recombinant cells (human DLL3 extracellular segment fused to EpCAM transmembrane and intracellular regions) (human) (UniProt Q9NYJ7); assay: FACS, CHO-K1 hDLL3 cells, 20 nM antibody
[9] = molecular target: human DLL3 protein expressed on CHO-K1 recombinant cells (human DLL3 extracellular segment fused to EpCAM transmembrane and intracellular regions) (human) (UniProt Q9NYJ7); assay: FACS, CHO-K1 hDLL3 cells, 0.032 nM antibody
[10] = molecular target: monkey DLL3 on CHO-K1-cyno DLL3 cells (cynomolgus monkey); assay: FACS, CHO-K1-cyno DLL3 cells, 20 nM antibody
[11] = molecular target: mouse DLL3 on CHO-K1-mDLL3 cells (mouse) (UniProt O88516); assay: FACS, CHO-K1-mDLL3 cells, 0.8 nM antibody
[12] = molecular target: human DLL4 protein (Acro, Cat. No. DL4-H5227) (human) (UniProt Q9NR61); assay: ELISA, coated hDLL4; maximum over 0.1, 1, 10, 100 nM antibody
[13] = molecular target: monkey DLL3 on CHO-K1-cyno DLL3 cells (cynomolgus monkey); assay: FACS, CHO-K1-cyno DLL3 cells, 100 nM antibody
[14] = molecular target: human DLL3 protein (extracellular segment, His tag) (human) (UniProt Q9NYJ7); assay: SPR (Biacore 8K), antibody captured on Protein A chip, DLL3 antigen in solution, 1:1 Langmuir fit
[15] = molecular target: human DLL1 protein (Acro, Cat. No. DL1-H52H8) (human) (UniProt O00548); assay: ELISA, coated hDLL1; maximum over 0.1, 1, 10, 100 nM antibody
[16] = molecular target: human DLL3 protein expressed on CHO-K1 recombinant cells (human DLL3 extracellular segment fused to EpCAM transmembrane and intracellular regions) (human) (UniProt Q9NYJ7); assay: FACS, CHO-K1 hDLL3 cells, 0.00128 nM antibody
[17] = molecular target: monkey DLL3 on CHO-K1-cyno DLL3 cells (cynomolgus monkey); assay: FACS, CHO-K1-cyno DLL3 cells, 4 nM antibody
[18] = molecular target: human DLL3 protein expressed on CHO-K1 recombinant cells (human DLL3 extracellular segment fused to EpCAM transmembrane and intracellular regions) (human) (UniProt Q9NYJ7); assay: FACS, CHO-K1 hDLL3 cells, 4 nM antibody
[19] = molecular target: DLL3 endogenously expressed on NCI-H82 cells (UniProt Q9NYJ7); assay: FACS on NCI-H82 cells; antibody 0.00128 nM
[20] = molecular target: DLL3 endogenously expressed on NCI-H82 cells (UniProt Q9NYJ7); assay: FACS on NCI-H82 cells; antibody 0.0064 nM
[21] = molecular target: human DLL3 protein expressed on CHO-K1 recombinant cells (human DLL3 extracellular segment fused to EpCAM transmembrane and intracellular regions) (human) (UniProt Q9NYJ7); assay: FACS, CHO-K1 hDLL3 cells, 0.0064 nM antibody
[22] = molecular target: human DLL3 protein expressed on CHO-K1 recombinant cells (human DLL3 extracellular segment fused to EpCAM transmembrane and intracellular regions) (human) (UniProt Q9NYJ7); assay: FACS, CHO-K1 hDLL3 cells, 0.16 nM antibody
[23] = molecular target: mouse DLL3 on CHO-K1-mDLL3 cells (mouse) (UniProt O88516); assay: FACS, CHO-K1-mDLL3 cells, 0.16 nM antibody
[24] = molecular target: monkey DLL3 on CHO-K1-cyno DLL3 cells (cynomolgus monkey); assay: FACS, CHO-K1-cyno DLL3 cells, 0.032 nM antibody
[25] = molecular target: DLL3 endogenously expressed on NCI-H82 cells (UniProt Q9NYJ7); assay: FACS on NCI-H82 cells; antibody 100 nM
[26] = molecular target: DLL3 endogenously expressed on NCI-H82 cells (UniProt Q9NYJ7); assay: FACS on NCI-H82 cells; antibody 20 nM
[27] = molecular target: DLL3 endogenously expressed on NCI-H82 cells (UniProt Q9NYJ7); assay: FACS on NCI-H82 cells; antibody 0.16 nM
[28] = molecular target: mouse DLL3 on CHO-K1-mDLL3 cells (mouse) (UniProt O88516); assay: FACS, CHO-K1-mDLL3 cells, 0.00128 nM antibody
[29] = molecular target: mouse DLL3 on CHO-K1-mDLL3 cells (mouse) (UniProt O88516); assay: FACS, CHO-K1-mDLL3 cells, 100 nM antibody
[30] = molecular target: DLL3 endogenously expressed on NCI-H82 cells (UniProt Q9NYJ7); assay: FACS on NCI-H82 cells; antibody 4 nM
[31] = molecular target: monkey DLL3 on CHO-K1-cyno DLL3 cells (cynomolgus monkey); assay: FACS, CHO-K1-cyno DLL3 cells, 0.16 nM antibody
[32] = molecular target: human delta-like ligand 3 (DLL3) on SHP77 cells (human) (UniProt Q9NYJ7); assay: FACS on SHP77 cells
[33] = molecular target: monkey DLL3 on CHO-K1-cyno DLL3 cells (cynomolgus monkey); assay: FACS, CHO-K1-cyno DLL3 cells, 0.8 nM antibody
[34] = molecular target: human DLL3 protein expressed on CHO-K1 recombinant cells (human DLL3 extracellular segment fused to EpCAM transmembrane and intracellular regions) (human) (UniProt Q9NYJ7); assay: FACS, CHO-K1 hDLL3 cells, 100 nM antibody
[35] = molecular target: monkey DLL3 on CHO-K1-cyno DLL3 cells (cynomolgus monkey); assay: FACS, CHO-K1-cyno DLL3 cells, 0.0064 nM antibody
[36] = molecular target: mouse DLL3 on CHO-K1-mDLL3 cells (mouse) (UniProt O88516); assay: FACS, CHO-K1-mDLL3 cells, 0.0064 nM antibody

human DLL3 protein (extracellular segment, His tag) (human), sequence (Q9NYJ7 27-492): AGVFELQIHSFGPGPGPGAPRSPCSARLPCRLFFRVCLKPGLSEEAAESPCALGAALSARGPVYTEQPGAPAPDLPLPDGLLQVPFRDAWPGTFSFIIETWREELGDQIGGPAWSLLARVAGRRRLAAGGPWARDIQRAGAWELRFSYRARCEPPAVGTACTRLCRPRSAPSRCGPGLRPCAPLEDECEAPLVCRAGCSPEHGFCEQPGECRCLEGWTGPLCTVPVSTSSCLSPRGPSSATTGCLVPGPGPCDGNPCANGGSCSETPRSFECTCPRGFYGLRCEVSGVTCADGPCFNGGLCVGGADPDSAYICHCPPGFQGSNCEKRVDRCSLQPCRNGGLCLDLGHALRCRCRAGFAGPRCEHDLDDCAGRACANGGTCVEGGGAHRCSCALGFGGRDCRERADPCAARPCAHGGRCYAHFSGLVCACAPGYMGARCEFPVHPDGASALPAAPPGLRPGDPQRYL
human DLL3 protein expressed on CHO-K1 recombinant cells (human DLL3 extracellular segment fused to EpCAM transmembrane and intracellular regions) (human), sequence (Q9NYJ7 other isoform, or with tags, fused parts or gaps limits assumed): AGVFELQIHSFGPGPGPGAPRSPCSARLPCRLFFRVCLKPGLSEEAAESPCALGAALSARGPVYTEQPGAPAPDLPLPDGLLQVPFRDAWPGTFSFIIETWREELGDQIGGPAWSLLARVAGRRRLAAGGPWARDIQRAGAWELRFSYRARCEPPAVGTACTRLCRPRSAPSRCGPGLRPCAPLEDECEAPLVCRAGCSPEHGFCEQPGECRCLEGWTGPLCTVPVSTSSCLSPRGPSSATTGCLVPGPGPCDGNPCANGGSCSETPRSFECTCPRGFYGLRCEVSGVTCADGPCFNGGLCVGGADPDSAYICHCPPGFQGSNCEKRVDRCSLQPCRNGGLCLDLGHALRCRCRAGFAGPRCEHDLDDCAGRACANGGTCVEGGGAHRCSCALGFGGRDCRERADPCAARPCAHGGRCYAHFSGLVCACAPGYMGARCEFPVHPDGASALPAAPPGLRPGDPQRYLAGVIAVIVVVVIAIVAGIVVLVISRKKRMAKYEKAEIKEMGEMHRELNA
mouse DLL3 on CHO-K1-mDLL3 cells (mouse), sequence (O88516 other isoform, or with tags, fused parts or gaps limits assumed): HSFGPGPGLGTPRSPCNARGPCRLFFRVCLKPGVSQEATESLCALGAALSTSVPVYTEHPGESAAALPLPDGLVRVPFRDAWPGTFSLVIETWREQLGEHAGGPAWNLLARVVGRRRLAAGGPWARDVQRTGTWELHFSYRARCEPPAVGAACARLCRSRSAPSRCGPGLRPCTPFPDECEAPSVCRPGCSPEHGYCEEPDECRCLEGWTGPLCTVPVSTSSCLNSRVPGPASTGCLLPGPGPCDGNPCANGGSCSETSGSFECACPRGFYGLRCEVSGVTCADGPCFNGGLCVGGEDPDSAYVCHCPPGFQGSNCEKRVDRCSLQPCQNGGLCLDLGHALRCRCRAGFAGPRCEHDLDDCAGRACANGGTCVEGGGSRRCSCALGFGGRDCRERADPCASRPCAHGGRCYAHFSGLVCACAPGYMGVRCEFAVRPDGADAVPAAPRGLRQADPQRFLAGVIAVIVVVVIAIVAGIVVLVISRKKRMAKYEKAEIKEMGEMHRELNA
DLL3 endogenously expressed on NCI-H82 cells, sequence (Q9NYJ7 27-618): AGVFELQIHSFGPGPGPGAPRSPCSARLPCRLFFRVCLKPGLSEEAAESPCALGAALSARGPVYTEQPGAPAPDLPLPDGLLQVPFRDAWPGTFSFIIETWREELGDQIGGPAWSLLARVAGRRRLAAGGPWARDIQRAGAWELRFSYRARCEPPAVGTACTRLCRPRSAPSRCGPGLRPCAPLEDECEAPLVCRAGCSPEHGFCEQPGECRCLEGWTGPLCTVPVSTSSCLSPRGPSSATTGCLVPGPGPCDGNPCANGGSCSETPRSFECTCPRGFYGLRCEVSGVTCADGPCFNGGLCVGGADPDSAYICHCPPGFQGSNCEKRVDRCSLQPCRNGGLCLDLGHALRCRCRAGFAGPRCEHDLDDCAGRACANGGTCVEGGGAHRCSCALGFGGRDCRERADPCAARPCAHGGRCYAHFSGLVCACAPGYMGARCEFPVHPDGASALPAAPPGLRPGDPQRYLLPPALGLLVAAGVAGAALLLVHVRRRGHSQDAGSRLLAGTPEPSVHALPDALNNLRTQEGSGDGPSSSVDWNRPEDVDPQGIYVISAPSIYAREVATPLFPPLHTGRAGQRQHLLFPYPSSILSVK
human delta-like ligand 3 (DLL3) on SHP77 cells (human), sequence (Q9NYJ7 27-618, stated change not applied): as the sequence (Q9NYJ7 27-618) above
monkey DLL3 on CHO-K1-cyno DLL3 cells (cynomolgus monkey), sequence (chain, as listed by the source limits assumed): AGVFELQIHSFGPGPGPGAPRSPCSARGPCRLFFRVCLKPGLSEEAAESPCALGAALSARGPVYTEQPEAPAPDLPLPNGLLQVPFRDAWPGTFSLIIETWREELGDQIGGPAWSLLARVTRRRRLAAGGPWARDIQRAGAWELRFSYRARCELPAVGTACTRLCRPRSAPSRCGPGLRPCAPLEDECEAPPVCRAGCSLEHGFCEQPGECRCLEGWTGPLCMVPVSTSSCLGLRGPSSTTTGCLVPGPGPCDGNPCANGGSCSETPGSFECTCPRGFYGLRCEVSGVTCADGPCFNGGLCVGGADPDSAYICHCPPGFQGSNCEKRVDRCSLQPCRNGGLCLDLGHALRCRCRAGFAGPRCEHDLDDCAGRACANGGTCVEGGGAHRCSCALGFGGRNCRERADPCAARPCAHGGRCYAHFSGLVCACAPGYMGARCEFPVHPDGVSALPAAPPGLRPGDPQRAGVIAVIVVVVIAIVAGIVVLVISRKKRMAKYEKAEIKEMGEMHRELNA
human DLL1 protein (Acro, Cat. No. DL1-H52H8) (human), sequence (O00548 18-540 limits assumed): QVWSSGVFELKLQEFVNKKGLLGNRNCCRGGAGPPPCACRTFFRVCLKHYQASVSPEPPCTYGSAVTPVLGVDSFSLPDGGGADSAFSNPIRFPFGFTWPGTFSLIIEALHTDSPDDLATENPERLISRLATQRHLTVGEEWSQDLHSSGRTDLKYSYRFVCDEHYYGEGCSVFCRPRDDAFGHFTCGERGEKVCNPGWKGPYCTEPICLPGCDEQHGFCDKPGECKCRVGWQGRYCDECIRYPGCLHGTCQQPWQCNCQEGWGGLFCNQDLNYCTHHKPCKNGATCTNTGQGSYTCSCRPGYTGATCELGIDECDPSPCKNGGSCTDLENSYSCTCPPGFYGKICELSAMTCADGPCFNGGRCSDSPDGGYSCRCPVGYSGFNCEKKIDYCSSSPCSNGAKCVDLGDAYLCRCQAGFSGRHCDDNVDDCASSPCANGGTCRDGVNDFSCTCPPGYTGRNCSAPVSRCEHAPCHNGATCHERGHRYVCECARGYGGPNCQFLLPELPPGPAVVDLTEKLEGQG
human DLL4 protein (Acro, Cat. No. DL4-H5227) (human), sequence (Q9NR61 27-524 limits assumed): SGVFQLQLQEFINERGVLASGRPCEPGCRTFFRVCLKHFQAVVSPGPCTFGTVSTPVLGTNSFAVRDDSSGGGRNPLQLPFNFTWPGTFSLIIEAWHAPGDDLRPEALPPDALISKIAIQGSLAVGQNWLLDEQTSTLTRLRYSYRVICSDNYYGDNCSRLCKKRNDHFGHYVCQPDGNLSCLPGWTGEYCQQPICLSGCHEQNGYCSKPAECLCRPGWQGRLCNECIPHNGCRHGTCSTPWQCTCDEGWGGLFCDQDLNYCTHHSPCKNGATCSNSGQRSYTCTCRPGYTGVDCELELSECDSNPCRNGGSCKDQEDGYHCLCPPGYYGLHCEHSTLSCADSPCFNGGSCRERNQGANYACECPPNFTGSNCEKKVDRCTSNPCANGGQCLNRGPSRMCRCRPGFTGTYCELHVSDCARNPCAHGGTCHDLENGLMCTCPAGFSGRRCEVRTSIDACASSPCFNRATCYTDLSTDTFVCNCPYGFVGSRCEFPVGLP

B1: Hab015VL4VH6a-hFc (scFv, part only; not given: scFv linker and human IgG1 Fc, V domains shown, not shown: another chain or arm of the molecule; a dimerising Fc or GST; small tags and cut ends)
VL: NIVLTQSPATLSLSPGERATLSCKASENVGTYVSWFQQKPGQSPRLLIYGASNRYTGIPARFSGSGSGTDFTLTISSLEPEDFAVYYCGQFYSFPSTFGGGTKVEIK
VH: EVQLVESGGGLVKPGGSLRLSCAASGITFSNFWMNWVRQAPEKGLEWVGQIRLKSDDYATHYAESVKGRFTISREDSKNTVYLQMNSLKTEDTAVYYCTTGYYFDYWGQGTTVTVSS
Work on B1 yielded an MFI [1] of 211, an MFI [2] of 1260 MFI and an MFI [3] of 118 MFI. The MFI [4] was 170 MFI, the MFI [5] was 4370 MFI and the MFI [6] was 913. For the same binder, the MFI [7] was 1460 MFI, the MFI [8] was 12400 MFI and the MFI [9] was 265 MFI. For the same binder, the MFI [10] was 7330 MFI, the MFI [11] was 884 MFI and the Emax of OD450 nm binding value [12] was 0.64 OD450 nm. For the same binder, the MFI [13] was 7480 MFI, the Kd [14] was 0.116 pM and the koff [14] was 2.03e-07 s⁻¹. For the same binder, the kon [14] was 1.75e+06 M⁻¹ s⁻¹, the Emax of OD450 nm binding value [15] was 0.49 OD450 nm and the MFI [16] was 120 MFI. It also gave an MFI [17] of 6820 MFI, an MFI [18] of 11200 MFI and an MFI [19] of 118. The MFI [20] was 133, the MFI [21] was 144 MFI and the MFI [22] was 861 MFI. It also gave an MFI [23] of 361 MFI, an MFI [24] of 352 MFI and an MFI [25] of 1550. For the same binder, the MFI [26] was 1180, the MFI [27] was 469 and the MFI [28] was 118 MFI. The MFI [29] was 1590 MFI, the MFI [30] was 1050 and the MFI [31] was 1150 MFI. It also gave an MFI at 0.00128 nM [32] of 101 MFI, an MFI at 0.0064 nM [32] of 114 MFI and an MFI at 0.032 nM [32] of 173 MFI. It also gave an MFI at 0.16 nM [32] of 361 MFI, an MFI at 0.8 nM [32] of 692 MFI and an MFI at 4 nM [32] of 821 MFI. It also gave an MFI at 20 nM [32] of 943 MFI, an MFI at 100 nM [32] of 1270 MFI and an MFI [33] of 4260 MFI. The MFI [34] was 12200 MFI, the MFI [35] was 153 MFI and the MFI [36] was 130 MFI.
